Data as given in US20260028424A1 (GRANULAR THERAPEUTICS, published 2026).

Columns and labels:
[1] = biological target: T1, human CD203c expressed on the surface of KU812 cells (human, UniProt O14638 1-875); assay: flow cytometry on KU812 cells
T1 construct: whole, on cells; also called cell-surface CD203c; cell surface CD203c on KU812 cells
T1 sequence (looked up): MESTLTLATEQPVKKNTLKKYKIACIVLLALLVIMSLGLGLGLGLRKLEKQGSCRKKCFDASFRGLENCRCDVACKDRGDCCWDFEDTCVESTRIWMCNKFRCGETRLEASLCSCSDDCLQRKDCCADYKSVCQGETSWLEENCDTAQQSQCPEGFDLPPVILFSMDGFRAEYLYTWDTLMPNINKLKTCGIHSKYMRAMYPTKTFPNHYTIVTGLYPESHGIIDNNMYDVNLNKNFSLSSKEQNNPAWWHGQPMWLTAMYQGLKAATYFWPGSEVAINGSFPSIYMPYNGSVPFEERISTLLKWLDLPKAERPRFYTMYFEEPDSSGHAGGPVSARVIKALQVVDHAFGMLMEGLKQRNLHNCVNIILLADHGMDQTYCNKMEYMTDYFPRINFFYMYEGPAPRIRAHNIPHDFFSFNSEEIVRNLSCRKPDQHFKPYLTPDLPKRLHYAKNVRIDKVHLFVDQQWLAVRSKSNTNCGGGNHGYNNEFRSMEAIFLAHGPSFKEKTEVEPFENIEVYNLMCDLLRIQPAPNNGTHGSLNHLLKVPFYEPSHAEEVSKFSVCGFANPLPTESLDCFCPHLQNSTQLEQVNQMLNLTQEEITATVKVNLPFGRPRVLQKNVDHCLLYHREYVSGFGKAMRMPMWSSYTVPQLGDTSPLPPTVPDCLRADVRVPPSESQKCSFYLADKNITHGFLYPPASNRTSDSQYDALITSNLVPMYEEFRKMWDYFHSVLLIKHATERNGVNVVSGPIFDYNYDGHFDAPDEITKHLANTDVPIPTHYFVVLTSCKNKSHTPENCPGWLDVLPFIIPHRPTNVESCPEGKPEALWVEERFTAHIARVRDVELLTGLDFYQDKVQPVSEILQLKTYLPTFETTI
Experimental: All treatments were performed on cells seeded in T75 flasks at a seeding density of 0.3e6/ml. Cells were cultured in the presence of 80 ng/ml of SCF and treated with 20 ng/ml of IL3 24 hours prior to antibody staining. Following SCF/IL3 treatment, cells were harvested and stained with live dead stain (Zombie UV Biolegend 423108). Cells were then stained with a titration of anti-CD203c antibodies/bispecifics or respective isotype controls in a 5-fold dilution series starting at 50 μg/mL and detected with Anti human-Fc AF647 antibody (JIR 109-605-098). Samples were subsequently run on a Yeti analyzer, gating on 10K live cells. Subsequent analysis was performed using FlowJo software and data represented as MFI (median fluorescent intensity).

[2] = biological target: T2, human CD203c His-tagged recombinant protein (human, UniProt O14638 49-875, limits assumed); assay: direct binding ELISA on coated recombinant human CD203c
T2 construct: also called ENPP3; not shown: His tag
T2 sequence (looked up): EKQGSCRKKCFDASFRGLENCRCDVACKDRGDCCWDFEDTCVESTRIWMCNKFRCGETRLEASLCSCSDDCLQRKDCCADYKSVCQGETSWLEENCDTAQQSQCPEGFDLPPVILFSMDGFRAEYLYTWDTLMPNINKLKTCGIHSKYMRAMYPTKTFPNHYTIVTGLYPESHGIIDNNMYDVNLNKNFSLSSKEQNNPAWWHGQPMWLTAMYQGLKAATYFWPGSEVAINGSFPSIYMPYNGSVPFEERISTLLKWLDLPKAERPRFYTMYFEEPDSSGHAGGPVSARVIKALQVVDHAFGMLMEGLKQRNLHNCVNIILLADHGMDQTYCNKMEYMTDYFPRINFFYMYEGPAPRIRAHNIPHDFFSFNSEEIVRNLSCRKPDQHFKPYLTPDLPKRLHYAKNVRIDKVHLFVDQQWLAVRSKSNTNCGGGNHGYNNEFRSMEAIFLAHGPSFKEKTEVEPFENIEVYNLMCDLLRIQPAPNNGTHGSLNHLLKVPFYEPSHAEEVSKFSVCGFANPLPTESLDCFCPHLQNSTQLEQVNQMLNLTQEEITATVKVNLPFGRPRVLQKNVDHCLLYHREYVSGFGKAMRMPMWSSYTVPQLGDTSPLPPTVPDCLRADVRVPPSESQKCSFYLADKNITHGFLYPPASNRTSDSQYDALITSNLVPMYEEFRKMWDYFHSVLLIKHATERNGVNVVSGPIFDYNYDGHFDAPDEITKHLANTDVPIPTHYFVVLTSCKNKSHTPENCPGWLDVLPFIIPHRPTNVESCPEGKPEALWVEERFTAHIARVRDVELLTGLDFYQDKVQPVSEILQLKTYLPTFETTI
Experimental: (§1) Binding and cross-reactivity of the molecules to the human, rhesus, and cynomolgus CD203c was initially assessed by binding ELISA. The human CD203c His-tagged recombinant protein and the rhesus monkey CD203c His-tagged recombinant protein were coated to the surface of MaxiSorp™ flat-bottom 96 well plates at a concentration of 1 μg/ml. The purified samples were titrated in 5-fold serial dilutions starting from 100 nM and allowed to bind to the coated antigens. The IgGs were detected using mouse anti-human IgG conjugated to horseradish peroxidase. Binding signals were visualized with 3,3′,5,5′-Tetramethylbenzidine Substrate Solution (TMB) and the absorbance measured at 450 nm.

[3] = biological target: T3, rhesus monkey CD203c His-tagged recombinant protein (rhesus monkey, UniProt F6TH66 31-874); assay: direct binding ELISA on coated recombinant rhesus CD203c
T3 construct: also called rhesus CD203c; not shown: His tag
T3 sequence: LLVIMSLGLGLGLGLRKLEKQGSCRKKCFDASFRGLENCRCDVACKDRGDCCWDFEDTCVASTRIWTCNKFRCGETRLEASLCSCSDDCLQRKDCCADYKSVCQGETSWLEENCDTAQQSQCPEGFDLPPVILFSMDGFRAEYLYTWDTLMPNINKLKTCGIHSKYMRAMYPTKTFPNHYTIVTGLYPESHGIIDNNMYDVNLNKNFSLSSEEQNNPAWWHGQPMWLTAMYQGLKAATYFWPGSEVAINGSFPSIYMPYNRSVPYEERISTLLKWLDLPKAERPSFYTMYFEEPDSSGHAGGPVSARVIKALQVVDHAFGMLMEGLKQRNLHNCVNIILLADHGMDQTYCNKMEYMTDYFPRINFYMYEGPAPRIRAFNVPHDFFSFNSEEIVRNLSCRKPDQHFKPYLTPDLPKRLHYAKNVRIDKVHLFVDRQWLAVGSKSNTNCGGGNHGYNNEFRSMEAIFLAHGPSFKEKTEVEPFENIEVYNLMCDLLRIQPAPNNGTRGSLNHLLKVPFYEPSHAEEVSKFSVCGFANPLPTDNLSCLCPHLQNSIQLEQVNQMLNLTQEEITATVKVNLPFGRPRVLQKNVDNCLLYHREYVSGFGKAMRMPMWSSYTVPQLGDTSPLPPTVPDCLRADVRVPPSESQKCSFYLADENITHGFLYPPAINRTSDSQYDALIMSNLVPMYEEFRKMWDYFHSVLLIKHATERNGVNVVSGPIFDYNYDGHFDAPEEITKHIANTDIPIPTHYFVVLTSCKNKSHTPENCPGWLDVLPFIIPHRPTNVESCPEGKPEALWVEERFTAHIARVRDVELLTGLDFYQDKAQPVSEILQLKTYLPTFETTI
Experimental: as §1

EC50 [1]: 98.2 nM
EC50 (read off the curve) [2]: ~7 nM
binding result [3]: binds
B1: anti-CD203c 1.27 IgG (parental clone, MH1 common light chain) (antibody, V domains shown)
VH: EVQLVQSGAEVKKPGESLKISCKGSGYRFTSYWIGWVRQMPGKGLEWMGIIYPGDSDTRYSPSFQGQVTISADKSISTAYLQWSSLKASDTAMYYCARKDYYYYAMDVWGQGTTVTVSS
VL: DIQMTQSPSSLSASVGDRVTITCRASQGIRTNLAWFQQKPGKAPKSLIYAASSLQSGVPSRFSGSGSGTDFTLTISSLQPEDFATYYCQQYNSYPRTFGGGTKVEIK
notes: IgG1null (human IgG1 with L234A, L235A, G237A) and human Ckappa
